According to patent CN117990904A:

Molecular target: A型FMDV毒株
Assay: cell-based or functional assay

B1: A型口蹄疫病毒中和抗体Ab1 (VHH)
VHH: QVQLQESGGGLVQAGGSLRLSCVYSGFTFGHYSMGWYRQAPGKEREFVAAIRRSDGSTDYADSTVKGRFTISRDNAKKTVYLQMNSLKPEDTAVYYCATVRRVATLSGSSSWGQGTQVTVSS
Q: Which Neu 50 (病毒中和试验) does the source give for B1 here?
A: 1.2 µmol/L
